# Source: patent US5852187A, “Molecular cloning of the ovine pituitary growth hormone releasing hormone receptor” (priority 1996, dated 1998)
# pKd, pKi: −log10 of the molar value. Several values for one entry are separate records, joined by “and”; a condition that tells them apart may be missing. Identical values can stand only once. Entries after “also recorded” stand apart in the source; their conditions may differ. Like-named read-outs stand apart in the source and are kept apart here. Where no end group is shown, it is not given here. [ ]: non-standard residue; d: D form. The star is where a group is joined. Nle = CCCC[C@H](N)C(=O)O; 125I = [125I]*
# Assays:
# GHRH receptor (GHRH-R) = assay: 125I-GHRHa binding assay in crude anterior pituitary membrane pellets; design: species or system ovine; conditions: for competition for the 125I-GHRHa binding site: 100 nM competing peptide; for displacement of GHRH in ovine pituitary: at 500 nM
# Protocol: Specific binding is defined as the difference in the binding seen with 20 pM iodinated analog alone and binding of the analog in the presence of 10 nM non-iodinated GHRHa.
# All steps were performed at 4° C. Frozen ovine or bovine anterior pituitaries (ovine: approximately 1 gm/pituitary obtained from Dr. Ian Clarke, Melbourne, Australia; bovine: approximately 2.5 gm/pituitary special handling from Pel-Freez, of Rogers, Ark.) were washed of blood, cleaned of connective tissue and homogenized (using a Dounce homogenizer) in 50 mM HEPES buffer, 100 mM NaCl, 10 mM EDTA, 0.1 μM EGTA, pH 7.4 with 0.5 mM PMSF (phenyl methyl sulfonyl fluoride), 10 μg/ml leupeptin, 10 μg/ml pepstatin A, and 200 U/ml (units/ml) aprotinin. This buffer is used to remove endogenous GTP which might be bound to G proteins and to restore high affinity binding. The homogenate was spun at top speed in a microfuge and the supernatant discarded. The upper (membrane) layer of the pellet was then gently resuspended in binding buffer containing 50 mM Tris buffer, 5 mM EGTA, 5 mM MgCl2, 50 μg/ml alamethicin, 30 μg/ml bacitracin and other protease inhibitors as above.
# 1/50 pituitary equivalent per tube was incubated in binding buffer with approximately 100,000 counts of iodinated probe in a volume of 500 μl at room temperature for 1 hour. The total counts delivered and the percent of counts bound for each tube was determined with 3 to 6 replicates per experimental condition. Saturation binding profiles were analyzed with the computer program Ligand which performs a statistically weighted least squares fit to the exact ligand binding equation in nontransformed coordinates.
# GHRH-R (55 kDa band) = assay: Photoaffinity cross-linking / photoprobe binding in pituitary membrane pellets (gamma counting, SDS-PAGE autoradiography); design: species or system ovine
# Protocol: Photoprobe binding in ovine pituitary membrane pellets was determined by γ-counting and UV induced cross-linking was examined by autoradiography of sodium dodecylsulfate polyacrylamide electrophoresis (SDS-PAGE) gels. ^125 I-GHRHa -ANB-NOS probe bound with an affinity of about one nanomole, nM (compared to about 160 picomole, pM, for GHRHa).
# Photoprobe binding to membranes was evaluated with crude membrane binding assay and then analyzed further by SDS-PAGE electrophoresis to identify the binding sites. Photoprobes were incubated in the dark, photolysed for 10 minutes with a long wave (366 nm) UV lamp, and then the samples were pelleted. The pellets were counted and then extracted by boiling directly in SDS sample buffer (total SDS extracts). Alternatively, the labeled pellets were extracted in a mild detergent solution (5 mM CHAPS) centrifuged, and the chloroform/methanol concentrated supernatants denatured with SDS buffer (CHAPS extracts). These samples were then electrophoresed in SDS gels and autoradiographed.
# [1] = target: T1, GHRH-R encoded by HAP 7 cDNA (Homo sapiens, UniProt Q02643); assay: Iodinated GHRH binding to COS cell membranes transfected with pCDM8 containing HAP 7 cDNA; conditions: for effect on binding of iodinated GHRH: 100 nM peptide, HAP transfected COS cells or membranes
# T1 construct: expressed in transfected cells; host or cells: Cos-1 cells (membranes), pCDM8 vector
# T1 sequence (Q02643 23-423): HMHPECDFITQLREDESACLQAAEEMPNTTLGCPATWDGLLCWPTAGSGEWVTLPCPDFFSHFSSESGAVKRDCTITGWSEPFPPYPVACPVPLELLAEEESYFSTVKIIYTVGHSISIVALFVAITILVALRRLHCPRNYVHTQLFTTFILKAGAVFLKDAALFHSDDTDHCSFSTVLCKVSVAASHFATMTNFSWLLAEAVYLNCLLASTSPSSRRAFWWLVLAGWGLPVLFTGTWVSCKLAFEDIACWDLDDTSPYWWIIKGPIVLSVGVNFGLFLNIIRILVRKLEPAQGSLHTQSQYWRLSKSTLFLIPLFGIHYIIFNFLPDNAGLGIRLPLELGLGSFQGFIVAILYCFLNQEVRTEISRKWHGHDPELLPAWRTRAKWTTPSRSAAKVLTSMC
# Protocol: Cos-1 cells were transfected with the vector formed by splicing pCDM8 and HAP cDNA, and Cos-1 cell membranes were prepared 72 hours subsequently. Cos-1 cells were transfected using 10 μg of plasmid DNA per 6×10^5 cells in a 100-mm dish using the DEAE-dextran method described by Cullen. […] COS cell cultures were transfected in parallel with pCDM8 containing a cDNA encoding the rat AT1 angiotensin II receptor.
# [2] = target: T2, secretin and VIP receptors (Homo sapiens, UniProt P47872); conditions: at 10 μM; cited from earlier work
# T2 construct: host or cells: human pancreas tissue
# T2 sequence (P47872 23-440): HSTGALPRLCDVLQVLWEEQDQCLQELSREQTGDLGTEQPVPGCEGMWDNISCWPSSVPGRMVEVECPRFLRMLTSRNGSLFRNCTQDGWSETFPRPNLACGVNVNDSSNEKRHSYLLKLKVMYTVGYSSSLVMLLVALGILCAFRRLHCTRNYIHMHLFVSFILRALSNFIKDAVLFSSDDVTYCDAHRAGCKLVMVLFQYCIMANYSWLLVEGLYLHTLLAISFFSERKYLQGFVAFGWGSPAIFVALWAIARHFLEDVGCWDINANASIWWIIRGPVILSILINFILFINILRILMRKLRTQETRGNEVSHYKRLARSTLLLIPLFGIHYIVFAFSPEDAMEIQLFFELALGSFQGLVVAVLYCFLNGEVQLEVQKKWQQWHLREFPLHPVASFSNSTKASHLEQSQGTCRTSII
# [3] = target: human GHRH receptor encoded by HAP 7.3 cDNA (human); assay: competition with iodinated GHRH analog, membranes of COS cells transfected with HAP 7 (FIG. 16)
# [4] = target: ovine pituitary growth hormone releasing hormone receptor (ovine); assay: saturation binding with increasing unlabeled GHRHa, crude pituitary membrane pellets (FIG. 2)
# [5] = target: bovine pituitary GHRH receptor (bovine) (UniProt Q9TUJ0); assay: displacement of GHRH and its analogs, bovine anterior pituitary tissue
# [6] = target: ovine pituitary growth hormone releasing hormone receptor (ovine); assay: binding and displacement of iodinated GHRH analog, ovine pituitary membranes (FIG. 17)
# [7] = target: ovine pituitary growth hormone releasing hormone receptor (ovine); assay: saturation binding analysed with the program Ligand, crude pituitary membrane pellets (FIG. 2)
# [8] = target: ovine pituitary growth hormone releasing hormone receptor (ovine); assay: displacement of GHRH and its analogs, ovine anterior pituitary tissue
# [9] = target: pituitary GHRH receptor (ovine or bovine, not said which at the place); assay: charcoal-dextran binding assay on pituitary membrane preparations solubilized in CHAPS without prebound ligand; the ligand is not named
# [10] = target: ovine pituitary growth hormone releasing hormone receptor (ovine); assay: saturation binding analysed with the program Ligand, crude pituitary membrane pellets
# [11] = target: dibiotinylated GHRHa (human) (UniProt P01286); assay: binding of iodinated biotinylated GHRHa forms to immobilized streptavidin, through the biotin group
# [12] = target: monobiotinylated GHRHa (human) (UniProt P01286); assay: as above
compound,measurement,setting,value
O[C@H](CS)[C@H](O)CS (racemic) [dithiothreitol],effect on specific binding in the GHRH assay,GHRH receptor (GHRH-R); preincubation with 1 mM,completely eliminated
Nc1nc2c(ncn2[C@@H]2O[C@H](COP(=O)(O)OP(=O)(O)OP(O)(O)=S)[C@@H](O)[C@H]2O)c(=O)[nH]1 [GTPγS],displacement of both photoprobes from membrane pellets,GHRH-R (55 kDa band); 50 μM GTPγS,partially displaced
"CC[C@H](C)[C@H](NC(=O)CNC(=O)[C@H](CC(=O)O)NC(=O)[C@H](CO)NC(=O)[C@@H](N)Cc1c[nH]cn1)C(=O)N[C@@H](Cc1ccccc1)C(=O)N[C@H](C(=O)N[C@@H](CC(=O)O)C(=O)N[C@@H](CO)C(=O)N[C@@H](Cc1ccc(O)cc1)C(=O)N[C@@H](CO)C(=O)N[C@@H](CCCNC(=N)N)C(=O)N[C@@H](Cc1ccc(O)cc1)C(=O)N[C@@H](CCCNC(=N)N)C(=O)N[C@@H](CCCCN)C(=O)N[C@@H](CCC(N)=O)C(=O)N[C@@H](CCSC)C(=O)N[C@@H](C)C(=O)N[C@H](C(=O)N[C@@H](CCCCN)C(=O)N[C@@H](CCCCN)C(=O)N[C@@H](Cc1ccc(O)cc1)C(=O)N[C@@H](CC(C)C)C(=O)N[C@@H](C)C(=O)N[C@@H](C)C(=O)N[C@H](C(=O)N[C@@H](CC(C)C)C(=O)NCC(=O)N[C@@H](CCCCN)C(=O)N[C@@H](CCCNC(=N)N)C(=O)N[C@@H](Cc1ccc(O)cc1)C(=O)N[C@@H](CCCCN)C(=O)N[C@@H](CCC(N)=O)C(=O)N[C@@H](CCCNC(=N)N)C(=O)N[C@H](C(=O)N[C@@H](CCCCN)C(=O)N[C@@H](CC(N)=O)C(=O)N[C@@H](CCCCN)C(N)=O)C(C)C)C(C)C)C(C)C)[C@@H](C)O [PACAP, pituitary adenylate cyclase activating peptide]",competition for the 125I-GHRHa binding site,GHRH receptor (GHRH-R),no competition; also recorded: did not compete
same,displacement of GHRH in ovine pituitary,GHRH receptor (GHRH-R),significant displacement
C[C@H](N)C(=O)NCC(=O)N[C@H]1CSSC[C@@H](C(=O)O)NC(=O)[C@H](CO)NC(=O)[C@H]([C@@H](C)O)NC(=O)[C@H](Cc2ccccc2)NC(=O)[C@H]([C@@H](C)O)NC(=O)[C@H](CCCCN)NC(=O)[C@H](Cc2c[nH]c3ccccc23)NC(=O)[C@H](Cc2ccccc2)NC(=O)[C@H](Cc2ccccc2)NC(=O)[C@H](CC(N)=O)NC(=O)[C@H](CCCCN)NC1=O [somatostatin],effect on binding of iodinated GHRH,[1],unaffected
GHRH(1-29)-NH2,inhibition of 125I-secretin binding,[2],20%
GHRH: growth hormone releasing hormone; the competitor in FIG. 17 is GHRHa,pKd,"GHRH receptor (GHRH-R); ovine pituitary membranes, displacement data of FIG. 17, read-out: KD for GHRH binding in pituitary",9.70
"His^1, ^125 I-Tyr^10,Nle^27 human GHRH(1-29)NH2",binding of radioligand to HAP cDNA transfected COS cell membranes,[1]; not seen in angiotensin receptor cDNA transfected COS cells,"specific, high-affinity binding"
PACAP (pituitary adenylate cyclase activating peptide),pKi,[3],7.52
"PHM: competing peptide of the VIP family (HADGVFTSDFSKLLGQLSAKKYLESLM; ends and bridges not checked; UniProt P01282 81-107, looked up)",effect on binding of iodinated GHRH,[1],unaffected
"[His1, Nle27]-GHRH-(1-32)-NH2 (from UniProt P01286) (peptide)",pKd,[4],9.80
same,fold lower displacing concentration than VIP or PACAP,[5],500 fold and 1000 fold
same,pKd,[6],9.70
same,pKd,[7],9.82
same,fold lower displacing concentration than VIP or PACAP,[8],500 fold and 1000 fold
same,pKd,[9],6.30
same,pKd,[10],9.80
"[His 1, Nle27, Biotin-Lys4 1 ]-GHRH-(1-41)-NH2 [GHRHb]",receptor binding affinity compared to GHRHa,GHRH receptor (GHRH-R),comparable to GHRHa
"[His^1, Nle^27 ]-GHRH-(1-32)-NH2 [GHRHa]",displacement of both photoprobes from membrane pellets,GHRH-R (55 kDa band); 10 nM GHRHa,totally displaced
same,effect on photo-cross-linked 55 kDa band,"GHRH-R (55 kDa band); 10 nM GHRHa, 125I-GHRHa-ANB-NOS probe",completely eliminated
same,pKd,"GHRH receptor (GHRH-R); crude ovine pituitary membranes, program Ligand, read-out: Kd, saturation binding to a single high affinity site",9.80 and ~9.80
"^125 I-GHRHa -ANB-NOS: GHRHa coupled to N-5-azido-2-nitrobenzoyloxysuccinimide at lysine 12 or 21, then iodinated; photoprobe (YADAIFTNSY(125I)RKVLGQLSARKLLQDI[Nle]SRQQG-NH2; also: N-5-azido-2-nitrobenzoyl (ANB-NOS) on lysine 12 or 21)",affinity of photoprobe binding,"GHRH-R (55 kDa band); ovine pituitary membrane pellets, gamma-counting",about one
"^125 I-GHRHa: radioiodinated GHRHa probe, monoiodinated and HPLC purified (YADAIFTNSY(125I)RKVLGQLSARKLLQDI[Nle]SRQQG-NH2)",comparison with commercially available iodinated human GHRH,GHRH receptor (GHRH-R),slightly better specific binding
calcitonin,effect on binding of iodinated GHRH,[1],unaffected
immobilized streptavidin (from UniProt P22629) (tool reagent),percent of product bound,[11],> 90%
same,percent of product bound,[12],> 90%
"monobiotinylated GHRHa: GHRHa biotinylated at lysine 12 or 21 with NHS-LC-Biotin, mono form resolved on HPLC (YADAIFTNSY(iodo)RKVLGQLSARKLLQDI[Nle]SRQQG-NH2; also: NHS-LC-Biotin on one of lysines 12 and 21)",receptor binding affinity compared to GHRHa,GHRH receptor (GHRH-R),two-fold reduced
parathyroid hormone,effect on binding of iodinated GHRH,[1],unaffected
secretin,effect on binding of iodinated GHRH,[1],unaffected
vasoactive intestinal peptide [VIP],effect on photo-cross-linked 55 kDa band,GHRH-R (55 kDa band); 100 nM VIP,unaffected
same,competition for the 125I-GHRHa binding site,GHRH receptor (GHRH-R),no competition; also recorded: did not compete
same,displacement of GHRH in ovine pituitary,GHRH receptor (GHRH-R),not
same,effect on binding of iodinated GHRH,[1],unaffected; also recorded: no effect
same,inhibition of 125I-secretin binding,[2],20%
